According to patent US7063946B2, “Methods, reagents, kits and apparatus for protein function analysis” (Meso Scale Technologies, LLC., priority 2001, dated 2006):

B1: 4237375: IMAGE clone protein: βTRCP2 (protein)
chain: MEPDSVIEDKTIELMCSVPRSLWLGCANLVESMCALSCLQSMPSVRCLQISNGTSSVIVSRKRPSEGNYQKEKDLCIKYFDQWSESDQVEFVEHLISRMCHYQHGHINSYLKPMLQRDFITALPEQGLDHIAENILSYLDARSLCAAELVCKEWQRVISEGMLWKKLIERMVRTDPLWKGLSERRGWDQYLFKNRPTDGPPNSFYRSLYPKIIQDIETIESNWRCGRHNLQRIQCRSENSKGVYCLQYDDEKIISGLRDNSIKIWDKTSLECLKVLTGHTGSVLCLQYDERVIVTGSSDSTVRVWDVNTGEVLNTLIHHNEAVLHLRFSNGLMVTCSKDRSIAVWDMASATDITLRRVLVGHRAAVNVVDFDDKYIVSASGDRTIKVWSTSTCEFVRTLNGHKRGIACLQYRDRLVVSGSSDNTIRLWDIECGACLRVLEGHEELVRCIRFDNKRIVSGAYDGKIKVWDLQAALDPRAPASTLCLRTLVEHSGRVFRLQFDEFQIISSSHDDTILIWDFLNVPPSAQNETRSPSRTYTYISR
B2: 4419252: IMAGE clone protein: PLCγ (protein)
chain: MAGAASPCANGCGPGAPSDAEVLHLCRSLEVGTVMTLFYSKKSQRPERKTFQVKLETRQITWSRGADKIEGAIDIREIKEIRPGKTSRDFDRYQEDPAFRPDQSHCFVILYGMEFRLKTLSLQATSEDEVNMWIKGLTWLMEDTLQAPTPLQIERWLRKQFYSVDRNREDRISAKDLKNMLSQVNYRVPNMRFLRERLTDLEQRSGDITYGQFAQLYRSLMYSAQKTMDLPFLEASTLRAGERPELCRVSLPEFQQFLLDYQGELWAVDRLQVQEFMLSFLRDPLREIEEPYFFLDEFVTFLFSKENSVWNSQLDAVCPDTMNNPLSHYWISSSHNTYLTGDQFSSESSLEAYARCLRMGCRCIELDCWDGPDGMPVIYHGHTLTTKIKFSDVLHTIKEHAFVASEYPVILSIEDHCSIAQQRNMAQYFKKVLGDTLLTKPVEISADGLPSPNQLKRKILIKHKKLAEGSAYEEVPTSMMYSENDISNSIKNGILYLEDPVNHEWYPHYFVLTSSKIYYSEETSSDQGNEDEEEPKEVSSSTELHSNEKWFHGKLGAGRDGRHIAERLLTEYCIETGAPDGSFLVRESETFVGDYTLSFWRNGKVQHCRIHSRQDAGTPKFFLTDNLVFDSLYDLITHYQQVPLRCNEFEMRLSEPVPQTNAHESKEWYHASLTRAQAEHMLMRVPRDGAFLVRKRNEPNSYAISFRAEGKIKHCRVQQEGQTVMLGNSEFDSLVDLISYYEKHPLYRKMKLRYPINEEALEKIGTAEPDYGALYEGRNPGFYVEANPMPTFKCAVKALFDYKAQREDELTFIKSAIIQNVEKQEGGWWRGDYGGKKQLWFPSNYVEEMVNPVALEPEREHLDENSPLGDLLRGVLDVPACQIAIRPEGKNNRLFVFSISMASVAHWSLDVAADSQEELQDWVKKIREVAQTADARLTEGKIMERRKKIALELSELVVYCRPVPFDEEKIGTERACYRDMSSFPETKAEKYVNKAKGKKFLQYNRLQLSRIYPKGQRLDSSNYDPLPMWICGSQLVALNFQTPDKPMQMNQALFMTGRHCGYVLQPSTMRDEAFDPFDKSSLRGLEPCAISIEVLGARHLPKNGRGIVCPFVEIEVAGAEYDSTKQKTEFVVDNGLNPVWPAKPFHFQISNPEFAFLRFVVYEEDMFSDQNFLAQATFPVKGLKTGYRAVPLKNNYSEDLELASLLIKIDIFPAKENGDLSPFSGTSLRERGSDASGQLFHGRAREGSFESRYQQPFEDFRISQEHLADHFDSRERRAPRRTRVNGDNRL

Key:
IkBa-24pp (SEQ ID NO: 1) = target: T1, IkBa-24pp (SEQ ID NO: 1) (Homo sapiens, UniProt P25963); test: Single-well 4-spot assay for multiple peptide-protein interactions; assay type: binding
T1 construct: two phosphoserines in the DSGLDS motif (chemical modification); purchased New England Peptide, Fitchburg Mass; host or cells: chemical synthesis
T1 sequence (P25963 with tags, fused parts or gaps limits assumed): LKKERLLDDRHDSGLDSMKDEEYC
Text: (§1) Four phosphopeptides and their cognate binding proteins (Table 14) were selected for an integrated assay of multiple peptide-protein interaction in 4-spot Multi-Array plates. The IkBa-24pp peptide and its binding protein, βTRCP, are described in Example 10. The remaining peptides are derived from the carboxyl terminus of the EGF receptor. These phosphotyrosine containing peptides are recognized by different adaptor or effecter proteins of the receptor tyrosine kinase signaling pathway.
These four peptides were coupled to BSA carrier protein through cystine residue. After purification on PD-10 gel filtration columns, the peptide-BSA conjugates were then deposited on the assay domains of a 4-spot multi-array IPR plate (i.e., in one of the four exposed regions of working electrode defined by the dielectric layer) with an automated micro-dispensing system (Bio-Dot Dispenser, Bio-Dot, Irvine Calif.). Typically about 120 fmole of peptide:BSA conjugate in 0.25 μl was deposited on each spot of a 4-spot multi-array IPR plate. These plates are dried then used or stored under desiccated conditions. […] Thus, in this assay format, each peptide not only serves as the capture agent for assaying specific interaction with its binding protein, but also at the same time serves as a control for other peptide-protein interaction to be determined in the same well. […]

[1] = target: T2, EGFR-pY992 (SEQ ID NO: 5) (Homo sapiens, UniProt P00533); test: as above; assay type: binding; conditions: 4-spot plate
T2 construct: phosphotyrosine at Tyr992 (chemical modification); purchased New England Peptide, Fitchburg Mass; host or cells: chemical synthesis
Text: as §1, with “The remaining peptides are derived from the carboxyl terminus of the EGF receptor.” left out
These four peptides were coupled to BSA carrier protein through cystine residue. After purification on PD-10 gel filtration columns, the peptide-BSA conjugates were then deposited on the assay domains of a 4-spot multi-array IPR plate (i.e., in one of the four exposed regions of working electrode defined by the dielectric layer) with an automated micro-dispensing system (Bio-Dot Dispenser, Bio-Dot, Irvine Calif.). […] These plates are dried then used or stored under desiccated conditions. A few hours prior to usage the plates were rehydrated and blocked with 3% BSA in PBS. […] The in vitro translated and biotin-labeled proteins were then assayed in the 4-spot multi-array IPR plates under conditions described in Example 10.

EGFR [2] = target: T3, EGFR (Homo sapiens, UniProt P00533); test: EGFR binding assay, bound EGFR detected by its tyrosine kinase activity towards pEY
T3 construct: autophosphorylated tyrosines (self-phosphorylated with ATP before use); purchased Sigma Chemical Co, MO
Protocol: Proteins were produced in an in vitro transcription and translation reaction using 40–100 ng of plasmid DNA. […] The unbound components of the reaction containing endogenous kinases were removed by three washes with TT-buffer (25 mM Tris-HCl buffer pH 7.4 and 0.004% Triton), two five minutes washings with high-salt wash buffer (25 mM Tris-HCl buffer pH 7.4, 0.004% Triton, 1M NaCl and 5 mM DTT) and 3 more washes with TT-buffer. […] The unbound EGFR was washed by 4 times washing with TT-buffer (25 mM Tris-HCl buffer pH 7.4 and 0.004% Triton). The amount of EGFR bound to the reticulocyte lysate expressed protein was determined by detecting the kinase activity of EGFR. A tyrosine kinase substrate, 5 nM pEY (poly Glu-Tyr, Sigma, MO) was added in a 50 μl reaction containing 5 mM MgCl2, 5 mM MnCl2, 100 μM ATP, 25 mM Tris-HCl buffer pH 7.4, 0.05 mM Na3VO4, 0.004% TritonX-100, 2 mM DTT and EDTA-free protease inhibitor (Roche Molecular Biochemicals). This mixture was incubated with shaking at room temperature for 1 or 12 hours to allow phosphorylation of the pEY substrate by the EGFR. Following this incubation 45 μl of this mixture was transferred to a SA—NPT IPR plate coated with biotinylated anti-phosphotyrosine antibody (PY20, Zymed labs, CA) followed by incubation for 30 minutes at room temperature to allow the binding of the phosphorylated pEY substrate to the PY20 coated NPT plate. Following this binding step 50 ng Sulfo-TAG labeled anti-phosphotyrosine in buffer containing 25 mM Tris-HCl buffer pH 7.4, 5 mM MgCl2, 0.05 mM Na3VO4, 0.004% TritonX-100, 2 mM DTT and 0.05% IgG was added followed by incubation at room temperature for 30 mm.
The unbound reagents were removed by one time washing with TT-buffer (25 mM Tris-HCl buffer pH 7.4 and 0.004% Triton), and the TAG label was detected in presence of 150 μl IPR assay buffer (0.4 mM Gly-Gly buffer, pH 7.8, 1 mM EDTA, 0.1 M TPA). The ECL signals were measured using an imaging plate reader.

EGFR [3] = target: T3, EGFR; test: EGFR binding assay, bound EGFR detected with TAG labeled anti-EGFR

| Molecule | ECL signal, spot 1 IkBa-24pp (IkBa-24pp (SEQ ID NO: 1); 4-spot plate) | fold higher ECL signal from spot 1 than with TnT mixtures containing no exogenous DNA (IkBa-24pp (SEQ ID NO: 1); spot 1 (IkBa-24pp-BSA conjugate)) | ECL signal, spot 4 EGFR-pY992 [1] | ECL signal (EGFR [2]; +EGFR, reaction time 1 hr) | ECL signal (EGFR [2]; +EGFR, reaction time 12 hr) | ECL signal (EGFR [2]; no EGFR) | ECL signal (EGFR [3]; +EGFR) | ECL signal (EGFR [3]; no EGFR) |
| --- | --- | --- | --- | --- | --- | --- | --- | --- |
| B1 | 5040 | 100 fold |  |  |  |  |  |  |
| B2 |  |  | 1404 | 17,966 | 39,767 | 1,695 | 30,389 | 2,271 |
